Test results: patent US20120276102A1 (Pfizer, published 2012)

B1: scFv H3 (scFv)
scFv: QVQLQESGPGLVKTSETLSLTCAVSGYSISSGYYWGWIRQPPGKGLEWIGSISHTGNTYYNPPLKSRVTISVDTSKNQFSLKLSSVTAADTAVYYCARFMGFGRPEYWGKGTLVTVSSGGGGSGGGGSGGGGSALSSELTQDPPVSVALGQTVTLTCQGDSLRTYYASWYQQKSGQAPILLLYGKHKRPSGIPDRFSGSTSGDTASLTITGAQAEDEADYYCNSRDSSGNPHVLFGGGTQLTVL
B2: scFv H4 (scFv)
scFv: QVQLQESGPGLVKTSETLSLTCAVSGYSISSGYYWGWIRQPPGKGLEWIGSISHTGNTYYNPPLKSRVTISVDTSKNQFSLKLSSVTAADTAVYYCARWLGFGRPEYWGKGTLVTVSSGGGGSGGGGSGGGGSALSSELTQDPPVSVALGQTVTLTCQGDSLRTYYASWYQQKSGQAPILLLYGKHKRPSGIPDRFSGSTSGDTASLTITGAQAEDEADYYCNSRDSSGNPHVLFGGGTQLTVL
B3: scFv L23 (scFv)
scFv: QVQLQESGPGLVKTSETLSLTCAVSGYSISSGYYWGWIRQPPGKGLEWIGSISHTGNTYYNPPLKSRVTISVDTSKNQFSLKLSSVTAADTAVYYCARGGGISRPEYWGKGTLVTVSSGGGGSGGGGSGGGGSALSSELTQDPPVSVALGQTVTLTCQGDSLRTYYASWYQQKSGQAPILLLYGKHKRPSGIPDRFSGSTSGDTASLTITGAQAEDEADYYCSARSVRGNPHVLFGGGTQLTVL
B4: scFv H5 (scFv)
scFv: QVQLQESGPGLVKTSETLSLTCAVSGYSISSGYYWGWIRQPPGKGLEWIGSISHTGNTYYNPPLKSRVTISVDTSKNQFSLKLSSVTAADTAVYYCARFLGFGRPEYWGKGTLVTVSSGGGGSGGGGSGGGGSALSSELTQDPPVSVALGQTVTLTCQGDSLRTYYASWYQQKSGQAPILLLYGKHKRPSGIPDRFSGSTSGDTASLTITGAQAEDEADYYCNSRDSSGNPHVLFGGGTQLTVL
B5: scFv L10 (scFv)
scFv: QVQLQESGPGLVKTSETLSLTCAVSGYSISSGYYWGWIRQPPGKGLEWIGSISHTGNTYYNPPLKSRVTISVDTSKNQFSLKLSSVTAADTAVYYCARGGGISRPEYWGKGTLVTVSSGGGGSGGGGSGGGGSALSSELTQDPPVSVALGQTVTLTCQGDSLRTYYASWYQQKSGQAPILLLYGKHKRPSGIPDRFSGSTSGDTASLTITGAQAEDEADYYCISRSIYGNPHVLFGGGTQLTVL
B6: scFv L4 (scFv)
scFv: QVQLQESGPGLVKTSETLSLTCAVSGYSISSGYYWGWIRQPPGKGLEWIGSISHTGNTYYNPPLKSRVTISVDTSKNQFSLKLSSVTAADTAVYYCARGGGISRPEYWGKGTLVTVSSGGGGSGGGGSGGGGSALSSELTQDPPVSVALGQTVTLTCQGDSLRTYYASWYQQKSGQAPILLLYGKHKRPSGIPDRFSGSTSGDTASLTITGAQAEDEADYYCSTRSSKGNPHVLFGGGTQLTVL
B7: scFv L2 (scFv)
scFv: QVQLQESGPGLVKTSETLSLTCAVSGYSISSGYYWGWIRQPPGKGLEWIGSISHTGNTYYNPPLKSRVTISVDTSKNQFSLKLSSVTAADTAVYYCARGGGISRPEYWGKGTLVTVSSGGGGSGGGGSGGGGSALSSELTQDPPVSVALGQTVTLTCQGDSLRTYYASWYQQKSGQAPILLLYGKHKRPSGIPDRFSGSTSGDTASLTITGAQAEDEADYYCVARSVVGNPHVLFGGGTQLTVL
B8: scFv L5 (scFv)
scFv: QVQLQESGPGLVKTSETLSLTCAVSGYSISSGYYWGWIRQPPGKGLEWIGSISHTGNTYYNPPLKSRVTISVDTSKNQFSLKLSSVTAADTAVYYCARGGGISRPEYWGKGTLVTVSSGGGGSGGGGSGGGGSALSSELTQDPPVSVALGQTVTLTCQGDSLRTYYASWYQQKSGQAPILLLYGKHKRPSGIPDRFSGSTSGDTASLTITGAQAEDEADYYCASRSSKGNPHVLFGGGTQLTVL
B9: scFv H6 (scFv)
scFv: QVQLQESGPGLVKTSETLSLTCAVSGYSISSGYYWGWIRQPPGKGLEWIGSISHTGNTYYNPPLKSRVTISVDTSKNQFSLKLSSVTAADTAVYYCARFFGFGRPEYWGKGTLVTVSSGGGGSGGGGSGGGGSALSSELTQDPPVSVALGQTVTLTCQGDSLRTYYASWYQQKSGQAPILLLYGKHKRPSGIPDRFSGSTSGDTASLTITGAQAEDEADYYCNSRDSSGNPHVLFGGGTQLTVL
B10: scFv L1 (scFv)
scFv: QVQLQESGPGLVKTSETLSLTCAVSGYSISSGYYWGWIRQPPGKGLEWIGSISHTGNTYYNPPLKSRVTISVDTSKNQFSLKLSSVTAADTAVYYCARGGGISRPEYWGKGTLVTVSSGGGGSGGGGSGGGGSALSSELTQDPPVSVALGQTVTLTCQGDSLRTYYASWYQQKSGQAPILLLYGKHKRPSGIPDRFSGSTSGDTASLTITGAQAEDEADYYCASRSVSGNPHVLFGGGTQLTVL
B11: scFv L3 (scFv)
scFv: QVQLQESGPGLVKTSETLSLTCAVSGYSISSGYYWGWIRQPPGKGLEWIGSISHTGNTYYNPPLKSRVTISVDTSKNQFSLKLSSVTAADTAVYYCARGGGISRPEYWGKGTLVTVSSGGGGSGGGGSGGGGSALSSELTQDPPVSVALGQTVTLTCQGDSLRTYYASWYQQKSGQAPILLLYGKHKRPSGIPDRFSGSTSGDTASLTITGAQAEDEADYYCVSRAVVGNPHVLFGGGTQLTVL

What was measured:
[1] = biological target: murine IL-21R expressed on cells (murine, UniProt Q9JHX3 20-529); test: cell-based or functional assay
[2] = biological target: human IL-21R expressed on cells (human, UniProt Q9HBE5 20-538); test: cell-based or functional assay
[3] = biological target: T1, murine IL-21R extracellular domain His-Flag fusion protein (murine, UniProt Q9JHX3 20-237); test: competition ELISA; competitor plate-bound 18A5 IgG
T1 construct: Biotinylated in the ELISAs; also called mIL-21R-H/F; murine IL-21R-H/F
Method: Blocked plates were washed 3× with PBS, and 50 μl/well of scFv/IL-21R mixtures were transferred to the appropriate plates and incubated for 1 hr at RT. Plates were washed 5× with PBS prior to the addition of a 1:6000 dilution of horseradish peroxidase-conjugated streptavidin (Southern Biotech, Birmingham, Ala.) secondary antibody to detect bound biotinylated mIL-21R-H/F. Plates were then incubated for 1 hr at RT and washed 7× with PBS. Signal was developed using 3,3′,5,5′-tetramethylbenzidine (TMB), the reaction stopped with H₂SO₄, and the absorbance read at 450 nm on an ENVISION™ plate reader (Perkin Elmer).

human IL-21R expressed on cells, sequence (Q9HBE5 20-538 limits assumed): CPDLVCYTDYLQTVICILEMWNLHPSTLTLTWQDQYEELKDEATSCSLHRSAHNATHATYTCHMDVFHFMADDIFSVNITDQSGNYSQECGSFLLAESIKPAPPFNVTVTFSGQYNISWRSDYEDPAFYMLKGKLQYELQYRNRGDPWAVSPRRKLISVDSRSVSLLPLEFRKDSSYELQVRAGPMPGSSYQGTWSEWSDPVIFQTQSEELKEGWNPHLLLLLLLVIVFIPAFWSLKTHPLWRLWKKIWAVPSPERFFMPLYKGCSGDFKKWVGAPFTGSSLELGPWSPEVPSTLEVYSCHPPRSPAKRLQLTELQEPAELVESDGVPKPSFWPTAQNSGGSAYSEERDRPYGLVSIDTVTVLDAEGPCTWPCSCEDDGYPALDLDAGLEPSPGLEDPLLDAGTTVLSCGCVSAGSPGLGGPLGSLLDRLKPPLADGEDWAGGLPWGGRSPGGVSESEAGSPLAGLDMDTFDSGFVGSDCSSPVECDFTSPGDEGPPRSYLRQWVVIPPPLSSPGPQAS

| Binder | IC50, Murine IL-21R-BaF3 Neutralization Assay [1] | IC50, Human IL-21R-BaF3 Neutralization Assay [2] | IC50, Human IL-21R-TF1 Neutralization Assay [2] | IC50 [3] |
| --- | --- | --- | --- | --- |
| B1 | 25.7 nM | 7.7 nM | 98.1 nM | 14 nM |
| B2 | – | 3.8 nM | 9.3 nM | – |
| B3 | – | 1.5 nM | 15.3 nM | 12 nM |
| B4 | 53.7 nM | 7.9 nM | 178 nM | 17 nM |
| B5 | – | 15.1 nM | 7 nM | 40 nM |
| B6 | – | 2.1 nM | ~60 nM | 8 nM |
| B7 | 2.41 nM | 3.1 nM | 37.5 nM | 5 nM |
| B8 | 38.5 nM | 2.1 nM | ~20 nM | 7 nM |
| B9 | – | 13.8 nM | ~150 nM | 13 nM |
| B10 | 28.8 nM | 3.7 nM | ~55 nM | 7 nM |
| B11 | 13.8 nM | 27.6 nM | ~7 nM | 100 nM |
